Experimental data published in publication doi:10.1101/557751.
pKd: −log10 of the molar value.

Columns and labels:
Experiment in all cases: EMSA
[1] = biological target: T1, CsiR (Pseudomonas putida (KT2440?)) (UniProt Q88IU1)
T1 sequence: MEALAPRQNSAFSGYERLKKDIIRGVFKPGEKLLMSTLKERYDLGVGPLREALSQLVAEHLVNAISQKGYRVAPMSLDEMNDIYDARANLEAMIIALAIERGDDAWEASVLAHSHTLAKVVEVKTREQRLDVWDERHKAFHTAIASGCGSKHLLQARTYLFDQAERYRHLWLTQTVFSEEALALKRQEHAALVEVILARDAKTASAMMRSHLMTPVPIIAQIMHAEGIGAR

[2] = biological target: T2, GcdR (Pseudomonas putida (KT2440?)) (UniProt Q88RH3)
T2 sequence: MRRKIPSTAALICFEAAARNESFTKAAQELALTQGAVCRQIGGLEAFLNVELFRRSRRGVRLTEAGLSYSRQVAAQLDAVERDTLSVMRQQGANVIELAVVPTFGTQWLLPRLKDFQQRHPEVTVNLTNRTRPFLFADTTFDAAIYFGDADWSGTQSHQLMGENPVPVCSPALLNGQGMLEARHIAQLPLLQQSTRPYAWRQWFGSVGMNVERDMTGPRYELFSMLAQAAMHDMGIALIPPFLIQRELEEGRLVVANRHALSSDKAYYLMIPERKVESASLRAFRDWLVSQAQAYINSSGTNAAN

[3] = test system: CsiR (Pseudomonas putida (KT2440?))
[4] = test system: GcdR (Pseudomonas putida (KT2440?))

Substance: AGTTCGATCTGCGTAAAGGCGTTCATGGCAGTGTCCTGGCTAAAAAAGTAGATGGCGCCGTCCGGTCATGACCTGGATCAGTGCGGGCGAGGTAAAAATATCGCCACTAACTGAAAATGTCTACATTTTTATTTTTCAACGACACTACTCGTGTTTGTCCATTGTTTTTCGTCAGCAGAGGGTTTCGGTATGATCGGCAAAACGTTTTGAGGAACAGGATCTTGGAAGCGCTCGCCCCCCGACAAAACTCAGCATTCAGCGGG (double strand) [csiR-csiD intergenic probe]
- pKd [1]: 7.52

Substance: CGGGTCGATCCAGTTGAAACTTGCTTTACCGACCATGAGCGAATCCTCGAAATAGGGGTCAGTTTCTTGTGCCTTTGAGCCTAGGCCTGATCGGCTGCGGCGACAAACGAGGATTGCGCACCGATTAGTGATATTTTGTCACTCCGTAAATCGGCAAAACGCCTTATTGACAGCCTTACAAGTGAGGTTGACGTACATGC (double strand) [gcdR intergenic probe]
- pKd [2]: 7.20

Substance: csiR-csiD intergenic probe
- pKd [3]: 7.52

Substance: gcdR intergenic probe
- pKd [4]: 7.20
